# Experimental data from patent US20120220015.
# Tests used:
# [1] = target: fibrin (clot formed from purified fibrinogen with α-thrombin) (UniProt P02671)
# α2-antiplasmin = target: T1, α2-antiplasmin (UniProt P08697)
# T1 sequence: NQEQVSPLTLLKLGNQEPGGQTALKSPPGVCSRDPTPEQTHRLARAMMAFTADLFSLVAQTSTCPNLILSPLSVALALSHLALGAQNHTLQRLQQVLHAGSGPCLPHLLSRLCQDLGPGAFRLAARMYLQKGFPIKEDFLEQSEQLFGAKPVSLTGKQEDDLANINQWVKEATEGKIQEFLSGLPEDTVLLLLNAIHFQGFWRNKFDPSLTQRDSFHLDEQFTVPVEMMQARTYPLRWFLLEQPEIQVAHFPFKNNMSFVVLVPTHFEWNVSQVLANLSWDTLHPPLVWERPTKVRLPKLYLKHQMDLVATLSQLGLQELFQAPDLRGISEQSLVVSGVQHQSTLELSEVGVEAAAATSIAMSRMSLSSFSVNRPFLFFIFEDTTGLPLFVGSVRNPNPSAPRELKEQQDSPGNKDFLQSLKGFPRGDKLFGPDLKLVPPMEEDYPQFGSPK
# Sequence of fibrin (clot formed from purified fibrinogen with α-thrombin) (P02671 36-629, chain 1 of 3): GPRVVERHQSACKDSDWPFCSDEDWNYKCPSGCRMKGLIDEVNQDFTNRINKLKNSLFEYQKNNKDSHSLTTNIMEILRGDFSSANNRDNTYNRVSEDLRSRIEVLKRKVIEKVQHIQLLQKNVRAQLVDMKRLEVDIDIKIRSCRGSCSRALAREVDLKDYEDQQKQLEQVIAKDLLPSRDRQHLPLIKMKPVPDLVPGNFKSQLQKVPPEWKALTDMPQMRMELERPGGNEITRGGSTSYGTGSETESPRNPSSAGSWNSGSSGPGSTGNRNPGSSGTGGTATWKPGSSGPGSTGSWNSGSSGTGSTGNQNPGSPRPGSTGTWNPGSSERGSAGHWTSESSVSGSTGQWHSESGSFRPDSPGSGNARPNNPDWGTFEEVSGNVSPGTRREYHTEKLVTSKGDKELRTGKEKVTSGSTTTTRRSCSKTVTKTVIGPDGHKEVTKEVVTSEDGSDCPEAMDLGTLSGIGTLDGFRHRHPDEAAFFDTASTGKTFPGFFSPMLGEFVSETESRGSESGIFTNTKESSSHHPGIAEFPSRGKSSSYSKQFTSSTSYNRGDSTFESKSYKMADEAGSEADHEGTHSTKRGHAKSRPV
# Sequence of fibrin (clot formed from purified fibrinogen with α-thrombin) (chain, as listed by the source, chain 2 of 3): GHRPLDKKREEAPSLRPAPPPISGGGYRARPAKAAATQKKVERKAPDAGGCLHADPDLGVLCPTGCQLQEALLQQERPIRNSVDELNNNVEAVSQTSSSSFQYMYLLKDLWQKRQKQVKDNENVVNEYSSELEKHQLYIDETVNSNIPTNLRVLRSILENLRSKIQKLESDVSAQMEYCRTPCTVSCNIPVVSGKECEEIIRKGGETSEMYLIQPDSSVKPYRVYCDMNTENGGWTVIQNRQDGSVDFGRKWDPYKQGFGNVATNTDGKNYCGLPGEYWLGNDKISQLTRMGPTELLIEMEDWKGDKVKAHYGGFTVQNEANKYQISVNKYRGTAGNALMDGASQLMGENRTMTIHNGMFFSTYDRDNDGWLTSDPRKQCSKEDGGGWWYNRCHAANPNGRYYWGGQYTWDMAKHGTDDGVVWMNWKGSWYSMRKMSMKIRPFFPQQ
# Sequence of fibrin (clot formed from purified fibrinogen with α-thrombin) (chain, as listed by the source, chain 3 of 3): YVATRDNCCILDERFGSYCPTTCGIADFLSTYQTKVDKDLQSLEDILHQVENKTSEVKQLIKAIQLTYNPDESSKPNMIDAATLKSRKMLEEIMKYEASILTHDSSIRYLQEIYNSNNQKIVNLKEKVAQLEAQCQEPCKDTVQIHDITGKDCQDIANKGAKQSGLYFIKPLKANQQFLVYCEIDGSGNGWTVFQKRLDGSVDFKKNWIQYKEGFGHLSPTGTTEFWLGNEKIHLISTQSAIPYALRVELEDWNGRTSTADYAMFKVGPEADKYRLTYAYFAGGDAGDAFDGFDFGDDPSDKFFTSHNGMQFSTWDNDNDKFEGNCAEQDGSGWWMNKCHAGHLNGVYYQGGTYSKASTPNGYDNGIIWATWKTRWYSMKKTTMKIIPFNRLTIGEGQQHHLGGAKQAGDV
substance,measurement,setting,value
"human reference plasmin (commercial, human-derived plasmin)","fibrin clot lysis (decrease of turbidity at 340 nm), plasmin at 500, 250, 125 and 62 nM",[1],steeper slopes of the curves with increasing plasmin concentrations
same,"plasmin activity (S-2403 hydrolysis at 405 nm) after 30 minutes pre-incubation with α2-AP, plasmin:α2-AP molar ratio of 1:1",α2-antiplasmin,"no plasmin activity was detected for human, BAP12-B2-150, or BAP01-B1-230 plasmin, indicating that the inhibition was complete"
